Test results from patent US20060021073A1.

Target: Rab3
Test: cell-based or functional assay

wild-type Noc2 expressed from adenovirus Ad-Noc2 wt in pancreatic islets of Noc2-/- mice (from UniProt Q768S4 1-302)
Ca2+-triggered insulin secretion in cultured pancreatic islets of Noc2-/- mice (ng/islet/30 min): 1.2
